# Target: the molecule itself
# Experiment: Western blotting of the microsomal fraction of transfected cells; self-association
# Procedure: The truncated SERCA1 protein could be detected in the microsomal fraction of transiently transfected cells, by western blotting. […] Immunohistochemical analyses of the transfected cells were carried out with the anti-SERCA1-T antibody and made it possible to detect a reticular location in the cells transfected with S1T+4.
protein,measurement,value
"S1T+4 truncated SERCA1 protein (other, Splice variant of SERCA1 lacking exon 11, expected size 46 kDa; Expressed in transfected cells or endogenous in cell lines; also called SERCA1-T) MEAAHAKTTEECLAYFGVSETTGLTPDQVKRNLEKYGLNELPAEEGKTLWELVIEQFEDLLVRILLLAACISFVLAWFEEGEETITAFVEPFVILLILIANAIVGVWQERNAENAIEALKEYEPEMGKVYRADRKSVQRIKARDIVPGDIVEVAVGDKVPADIRILAIKSTTLRVDQSILTGESVSVIKHTEPVPDPRAVNQDKKNMLFSGTNIAAGKALGIVATTGVGTEIGKIRDQMAATEQDKTPLQQKLDEFGEQLSKVISLICVAVWLINIGHFNDPVHGGSWFRGAIYYFKIAVALAVAAIPEGLPAVITTCLALGTRRMAKKNAIVRSLPSVETLGCTSVICSDKTGTLTTNQMSVCKMFIIDKVDGDICLLNEFSITGSTYAPEGEVPKVSMRRSARPPRQHSPPWWRR",binding result,binds
